Square brackets hold non-standard residues; d marks the D form. Peptide text beside a SMILES is read from it. * marks the point of attachment. X3 = O=C(CCCCCNCc1nc2c(sc3cc(Br)cnc32)c(=O)[nH]1)*

Assay in all cases: Kinase profiling (radiometric filter-binding)
What all share (assay type): biochemical

The target in one data set is SIK3 (Homo sapiens, UniProt Q9Y2K2). The note with it: SIK3, 1 µM inhibitor; read-out: Residual activity, %. The method in brief:
(§1)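 Screening format: radiometric, filter-based capture of phosphorylated substrate by human kinases. Conditions: ATP at/below KM, inhibitor 1 µM (final total). Output: remaining activity in percent of control.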

The target of another data set is GSK3 (Homo sapiens, UniProt P49841). The note with it: GSK3 (Greek letter lost), 1 µM inhibitor; read-out: Residual activity, %. The method in brief:
as §1

For the next data set, the target named is T1, PDK1 (Homo sapiens, UniProt O15530).
T1 sequence (O15530 1-556): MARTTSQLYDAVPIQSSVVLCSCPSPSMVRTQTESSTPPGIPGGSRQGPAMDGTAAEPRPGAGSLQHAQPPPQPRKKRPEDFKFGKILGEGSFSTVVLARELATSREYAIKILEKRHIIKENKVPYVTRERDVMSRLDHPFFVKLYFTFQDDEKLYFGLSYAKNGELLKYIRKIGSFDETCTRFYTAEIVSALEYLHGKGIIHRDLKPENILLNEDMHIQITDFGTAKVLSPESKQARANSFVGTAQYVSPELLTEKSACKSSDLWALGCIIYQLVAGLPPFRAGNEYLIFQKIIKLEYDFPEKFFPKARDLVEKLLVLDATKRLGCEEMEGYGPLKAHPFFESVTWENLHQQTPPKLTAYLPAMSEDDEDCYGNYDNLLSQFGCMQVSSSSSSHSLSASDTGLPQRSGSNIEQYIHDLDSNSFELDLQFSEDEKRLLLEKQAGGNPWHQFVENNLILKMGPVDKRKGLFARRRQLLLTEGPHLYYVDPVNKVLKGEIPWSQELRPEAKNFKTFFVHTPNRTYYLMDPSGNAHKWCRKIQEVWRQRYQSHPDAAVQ
To be noted: PDK1, 1 µM inhibitor; read-out: Residual activity, %. The method in brief:
as §1

For a further data set, the target named is TESK1 (Homo sapiens, UniProt Q15569). To be noted: TESK1, 1 µM inhibitor; read-out: Residual activity, %. An outline of the steps:
as §1

For another data set, the target named is MPSK1 (Homo sapiens, UniProt O75716). To be noted: MPSK1, 1 µM inhibitor; read-out: Residual activity, %. The method in brief: as §1
MPSK1, sequence (O75716 whole entry): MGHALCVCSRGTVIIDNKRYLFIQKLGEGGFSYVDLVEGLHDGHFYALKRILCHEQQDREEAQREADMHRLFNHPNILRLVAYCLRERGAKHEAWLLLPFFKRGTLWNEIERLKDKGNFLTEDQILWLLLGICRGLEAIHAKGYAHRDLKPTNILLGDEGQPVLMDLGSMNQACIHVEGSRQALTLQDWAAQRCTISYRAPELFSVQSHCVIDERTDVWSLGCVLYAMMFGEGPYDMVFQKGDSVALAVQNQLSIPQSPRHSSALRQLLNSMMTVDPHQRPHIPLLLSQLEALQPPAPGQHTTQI
In the next data set the target is SYK (Homo sapiens, UniProt P43405). The note with it: 1 µM inhibitor, read-out: Residual activity, %. The method in brief:
as §1

The next data set has as its target WNK1 (Homo sapiens, UniProt Q9H4A3). To be noted: WNK1, 1 µM inhibitor; read-out: Residual activity, %. An outline of the steps: as §1
The target in another data set is T2, DDR2 (Homo sapiens, UniProt Q16832).
T2 sequence (Q16832 22-855): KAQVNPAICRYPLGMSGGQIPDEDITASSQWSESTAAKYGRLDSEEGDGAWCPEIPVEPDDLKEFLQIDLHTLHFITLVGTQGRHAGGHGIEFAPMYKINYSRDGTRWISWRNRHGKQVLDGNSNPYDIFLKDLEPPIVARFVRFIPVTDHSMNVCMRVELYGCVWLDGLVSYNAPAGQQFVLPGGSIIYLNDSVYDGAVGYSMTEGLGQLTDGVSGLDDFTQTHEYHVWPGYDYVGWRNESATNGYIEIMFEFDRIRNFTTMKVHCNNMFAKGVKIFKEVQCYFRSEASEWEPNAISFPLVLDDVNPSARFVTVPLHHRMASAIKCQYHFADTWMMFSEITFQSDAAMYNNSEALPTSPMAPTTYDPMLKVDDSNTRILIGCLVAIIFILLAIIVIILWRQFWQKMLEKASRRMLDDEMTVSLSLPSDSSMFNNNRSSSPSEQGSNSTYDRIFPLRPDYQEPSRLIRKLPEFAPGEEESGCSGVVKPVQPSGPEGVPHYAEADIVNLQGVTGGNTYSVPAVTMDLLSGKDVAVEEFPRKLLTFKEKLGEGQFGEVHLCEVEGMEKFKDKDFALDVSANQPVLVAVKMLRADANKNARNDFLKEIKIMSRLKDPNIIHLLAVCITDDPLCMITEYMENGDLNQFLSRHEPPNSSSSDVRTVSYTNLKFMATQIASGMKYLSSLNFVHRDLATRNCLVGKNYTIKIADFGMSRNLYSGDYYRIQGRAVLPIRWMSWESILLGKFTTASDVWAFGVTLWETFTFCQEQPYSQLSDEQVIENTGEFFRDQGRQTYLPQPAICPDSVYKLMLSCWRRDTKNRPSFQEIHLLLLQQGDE
The note with it: DDR2, 1 µM inhibitor; read-out: Residual activity, %. An outline of the steps:
as §1

A further data set deals with ROCK 2 (Homo sapiens, UniProt O75116). The note with it: ROCK 2, 1 µM inhibitor; read-out: Residual activity, %. An outline of the steps:
as §1

For another data set, the target named is MAP4K5 (Homo sapiens, UniProt Q9Y4K4). The note with it: MAP4K5, 1 µM inhibitor; read-out: Residual activity, %. An outline of the steps: as §1
MAP4K5, sequence (Q9Y4K4 whole entry): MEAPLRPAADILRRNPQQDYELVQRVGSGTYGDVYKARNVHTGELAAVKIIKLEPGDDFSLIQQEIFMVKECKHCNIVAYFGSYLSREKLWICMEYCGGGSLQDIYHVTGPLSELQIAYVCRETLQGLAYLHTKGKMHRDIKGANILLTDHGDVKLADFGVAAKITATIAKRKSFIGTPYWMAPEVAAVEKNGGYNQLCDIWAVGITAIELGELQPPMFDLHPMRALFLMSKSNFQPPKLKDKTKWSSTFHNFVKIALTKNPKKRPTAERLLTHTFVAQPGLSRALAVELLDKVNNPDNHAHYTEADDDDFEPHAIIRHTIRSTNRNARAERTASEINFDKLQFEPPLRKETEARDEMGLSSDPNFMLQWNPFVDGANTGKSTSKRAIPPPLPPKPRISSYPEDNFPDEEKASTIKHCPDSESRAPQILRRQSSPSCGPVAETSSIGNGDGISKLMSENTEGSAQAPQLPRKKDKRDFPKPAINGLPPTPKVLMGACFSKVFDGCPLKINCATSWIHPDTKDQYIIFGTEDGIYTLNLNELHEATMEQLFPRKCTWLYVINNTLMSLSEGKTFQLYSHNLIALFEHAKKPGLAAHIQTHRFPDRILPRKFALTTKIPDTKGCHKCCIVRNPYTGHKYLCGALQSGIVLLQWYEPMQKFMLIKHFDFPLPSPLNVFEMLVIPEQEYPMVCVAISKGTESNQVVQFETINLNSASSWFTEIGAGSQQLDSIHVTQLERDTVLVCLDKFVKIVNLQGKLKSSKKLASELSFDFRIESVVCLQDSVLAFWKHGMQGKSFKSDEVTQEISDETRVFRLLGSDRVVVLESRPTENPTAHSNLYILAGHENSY
The target of a further data set is T3, NEK2 (Homo sapiens, UniProt P51955).
T3 sequence (P51955 1-445): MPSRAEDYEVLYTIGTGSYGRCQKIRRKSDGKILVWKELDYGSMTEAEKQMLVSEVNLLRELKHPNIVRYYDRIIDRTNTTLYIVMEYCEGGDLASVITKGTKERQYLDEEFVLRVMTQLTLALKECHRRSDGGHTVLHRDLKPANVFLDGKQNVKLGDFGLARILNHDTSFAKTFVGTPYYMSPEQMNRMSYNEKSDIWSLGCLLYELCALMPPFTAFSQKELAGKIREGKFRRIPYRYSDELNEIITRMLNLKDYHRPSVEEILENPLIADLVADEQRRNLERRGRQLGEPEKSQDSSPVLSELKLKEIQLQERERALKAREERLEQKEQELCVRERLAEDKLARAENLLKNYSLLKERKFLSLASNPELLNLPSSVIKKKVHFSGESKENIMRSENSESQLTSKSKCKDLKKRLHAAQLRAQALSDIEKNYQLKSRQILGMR
To be noted: NEK2 (letter lost), 1 µM inhibitor; read-out: Residual activity, %. An outline of the steps: as §1

SIK3, sequence (Q9Y2K2 whole entry): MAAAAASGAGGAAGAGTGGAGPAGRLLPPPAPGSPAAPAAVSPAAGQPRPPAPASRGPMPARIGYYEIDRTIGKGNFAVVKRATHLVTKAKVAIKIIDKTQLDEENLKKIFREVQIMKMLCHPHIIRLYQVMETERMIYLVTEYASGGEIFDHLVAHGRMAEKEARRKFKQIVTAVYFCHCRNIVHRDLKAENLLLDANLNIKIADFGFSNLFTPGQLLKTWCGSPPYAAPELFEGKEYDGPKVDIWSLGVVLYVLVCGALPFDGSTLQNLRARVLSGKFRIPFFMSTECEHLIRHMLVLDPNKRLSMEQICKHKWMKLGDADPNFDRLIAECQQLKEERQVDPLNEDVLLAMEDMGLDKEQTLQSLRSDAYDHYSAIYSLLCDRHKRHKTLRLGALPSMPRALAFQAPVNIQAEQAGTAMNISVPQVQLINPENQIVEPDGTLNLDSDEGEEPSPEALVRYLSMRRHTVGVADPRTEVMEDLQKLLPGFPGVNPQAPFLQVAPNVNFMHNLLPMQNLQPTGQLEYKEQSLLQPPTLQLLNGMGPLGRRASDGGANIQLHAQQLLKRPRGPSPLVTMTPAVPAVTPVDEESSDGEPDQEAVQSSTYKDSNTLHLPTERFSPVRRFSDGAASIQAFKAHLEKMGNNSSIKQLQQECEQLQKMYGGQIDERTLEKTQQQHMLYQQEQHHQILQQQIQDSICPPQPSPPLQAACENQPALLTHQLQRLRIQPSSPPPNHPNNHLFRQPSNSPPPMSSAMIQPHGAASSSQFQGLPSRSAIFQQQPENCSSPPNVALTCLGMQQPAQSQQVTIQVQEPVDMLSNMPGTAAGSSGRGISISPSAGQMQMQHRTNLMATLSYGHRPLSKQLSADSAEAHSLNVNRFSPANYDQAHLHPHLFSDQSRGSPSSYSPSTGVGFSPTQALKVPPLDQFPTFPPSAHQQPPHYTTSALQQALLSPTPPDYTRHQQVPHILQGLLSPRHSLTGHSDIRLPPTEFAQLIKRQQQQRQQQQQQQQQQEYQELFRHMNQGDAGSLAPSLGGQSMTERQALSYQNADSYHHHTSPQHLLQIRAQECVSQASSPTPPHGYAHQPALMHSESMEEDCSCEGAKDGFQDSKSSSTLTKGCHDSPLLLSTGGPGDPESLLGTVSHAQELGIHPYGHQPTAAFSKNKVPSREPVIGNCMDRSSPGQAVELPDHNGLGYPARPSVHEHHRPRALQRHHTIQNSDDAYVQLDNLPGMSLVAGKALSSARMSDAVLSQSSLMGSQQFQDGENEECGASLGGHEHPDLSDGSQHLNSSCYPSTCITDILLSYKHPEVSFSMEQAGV
TESK1, sequence (Q15569 whole entry): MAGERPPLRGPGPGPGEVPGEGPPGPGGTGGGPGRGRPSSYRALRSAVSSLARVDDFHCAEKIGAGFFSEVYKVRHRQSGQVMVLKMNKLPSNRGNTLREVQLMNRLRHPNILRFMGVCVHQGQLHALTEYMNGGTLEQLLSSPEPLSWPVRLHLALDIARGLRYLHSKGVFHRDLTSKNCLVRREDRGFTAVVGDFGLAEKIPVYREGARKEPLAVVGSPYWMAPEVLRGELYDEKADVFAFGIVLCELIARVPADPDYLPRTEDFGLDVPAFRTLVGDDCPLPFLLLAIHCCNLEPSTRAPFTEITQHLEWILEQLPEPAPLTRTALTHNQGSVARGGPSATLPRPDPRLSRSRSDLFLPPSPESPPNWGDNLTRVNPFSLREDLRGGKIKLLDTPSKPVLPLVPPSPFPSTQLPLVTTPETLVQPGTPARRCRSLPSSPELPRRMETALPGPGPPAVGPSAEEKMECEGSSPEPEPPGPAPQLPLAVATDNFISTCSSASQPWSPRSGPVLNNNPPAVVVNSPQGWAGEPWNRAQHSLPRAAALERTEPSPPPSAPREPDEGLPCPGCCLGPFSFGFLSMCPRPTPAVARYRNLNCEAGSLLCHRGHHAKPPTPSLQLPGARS
ROCK 2, sequence (O75116 whole entry): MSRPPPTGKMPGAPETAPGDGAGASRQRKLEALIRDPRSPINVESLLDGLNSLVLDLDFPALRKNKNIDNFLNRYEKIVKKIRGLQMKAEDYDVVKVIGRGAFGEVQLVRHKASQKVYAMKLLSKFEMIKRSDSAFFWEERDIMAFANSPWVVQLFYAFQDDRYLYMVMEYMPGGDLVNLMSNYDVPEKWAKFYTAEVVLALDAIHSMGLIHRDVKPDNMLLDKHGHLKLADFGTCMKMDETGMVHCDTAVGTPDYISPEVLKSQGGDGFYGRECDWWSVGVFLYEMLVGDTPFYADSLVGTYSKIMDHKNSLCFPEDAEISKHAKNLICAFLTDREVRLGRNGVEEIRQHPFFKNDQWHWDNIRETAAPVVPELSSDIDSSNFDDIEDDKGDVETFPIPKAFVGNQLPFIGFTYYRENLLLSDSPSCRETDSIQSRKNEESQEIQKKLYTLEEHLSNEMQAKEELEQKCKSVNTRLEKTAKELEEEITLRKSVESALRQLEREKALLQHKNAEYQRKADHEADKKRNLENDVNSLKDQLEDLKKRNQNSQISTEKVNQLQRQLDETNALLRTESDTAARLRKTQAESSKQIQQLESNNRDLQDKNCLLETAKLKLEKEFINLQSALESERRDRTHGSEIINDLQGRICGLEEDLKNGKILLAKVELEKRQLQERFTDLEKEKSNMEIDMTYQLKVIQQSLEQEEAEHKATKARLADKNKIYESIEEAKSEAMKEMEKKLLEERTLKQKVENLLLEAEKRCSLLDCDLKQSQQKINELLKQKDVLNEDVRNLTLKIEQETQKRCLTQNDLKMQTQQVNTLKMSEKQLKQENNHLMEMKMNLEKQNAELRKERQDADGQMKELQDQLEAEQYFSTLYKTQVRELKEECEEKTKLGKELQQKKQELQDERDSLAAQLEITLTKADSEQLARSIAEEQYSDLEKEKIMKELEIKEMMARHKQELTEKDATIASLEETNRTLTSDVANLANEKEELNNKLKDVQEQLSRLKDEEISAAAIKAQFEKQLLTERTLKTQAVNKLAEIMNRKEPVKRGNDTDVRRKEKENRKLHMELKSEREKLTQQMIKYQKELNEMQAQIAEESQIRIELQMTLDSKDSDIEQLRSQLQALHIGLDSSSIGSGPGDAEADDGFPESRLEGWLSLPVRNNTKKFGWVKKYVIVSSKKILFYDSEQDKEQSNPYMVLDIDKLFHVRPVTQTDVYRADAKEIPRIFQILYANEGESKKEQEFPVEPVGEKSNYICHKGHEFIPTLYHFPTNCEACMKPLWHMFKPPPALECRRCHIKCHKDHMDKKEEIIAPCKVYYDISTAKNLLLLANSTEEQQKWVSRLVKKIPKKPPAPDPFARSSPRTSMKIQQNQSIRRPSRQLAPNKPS
GSK3, sequence (P49841 whole entry): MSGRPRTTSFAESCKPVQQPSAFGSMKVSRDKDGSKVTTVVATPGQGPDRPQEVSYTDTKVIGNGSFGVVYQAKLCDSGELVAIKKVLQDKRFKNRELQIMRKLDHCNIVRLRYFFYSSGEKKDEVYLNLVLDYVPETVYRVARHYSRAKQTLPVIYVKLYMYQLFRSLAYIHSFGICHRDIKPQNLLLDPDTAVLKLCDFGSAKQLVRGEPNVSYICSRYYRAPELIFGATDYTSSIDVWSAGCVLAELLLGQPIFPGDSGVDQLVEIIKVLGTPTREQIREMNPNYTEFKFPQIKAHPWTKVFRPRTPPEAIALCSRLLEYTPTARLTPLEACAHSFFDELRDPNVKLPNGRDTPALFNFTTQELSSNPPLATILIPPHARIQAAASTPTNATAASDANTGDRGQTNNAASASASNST

Consider `N=C(N)NCCC[C@@H](NC(=O)CCCCCNC(=O)Cn1cnc2c(I)c(I)c(I)c(I)c21)C(=O)N[C@H](CCCNC(=N)N)C(=O)N[C@H](CCCNC(=N)N)C(=O)N[C@H](CCCNC(=N)N)C(=O)N[C@H](CCCNC(=N)N)C(=O)N[C@H](CCCNC(=N)N)C(=O)N[C@H](CCCCN)C(N)=O` [ARC-3125, TIBI-CH2-C(=O)-Ahx-(D-Arg)6-D-Lys-NH2], for which the remaining activity at 1 µM with SIK3 stood at 89 ± 7%; with GSK3 it was 140 ± 13%; in the data set with PDK1, 123 ± 7%; with TESK1, 102 ± 3%; with MPSK1 it was 75 ± 3%; with SYK, 94 ± 10%. In addition, the remaining activity at 1 µM with WNK1 came out at 105 ± 33%; in the data set with DDR2, 84 ± 13%; with ROCK 2 it was 5 ± 1%; in the data set with MAP4K5, 102 ± 3%; with NEK2, 21 ± 3%.
With `N=C(N)NCCC[C@@H](NC(=O)CCCCCNCc1nc2c(sc3cc(Br)cnc32)c(=O)[nH]1)C(=O)N[C@H](CCCNC(=N)N)C(=O)N[C@H](CCCNC(=N)N)C(=O)N[C@H](CCCNC(=N)N)C(=O)N[C@H](CCCNC(=N)N)C(=O)N[C@H](CCCNC(=N)N)C(=O)N[C@H](CCCCN)C(N)=O` [ARC-3126, BPTP-Ahx-(D-Arg)6-D-Lys-NH2] (X3-[dR][dR][dR][dR][dR][dR][dK]-NH2), the remaining activity at 1 µM with SIK3 stood at 117 ± 15%; in the data set with GSK3, 80%; with PDK1 it was 111 ± 13%; in the data set with TESK1, 99 ± 14%; in the data set with MPSK1 it was 79 ± 11%; in the data set with SYK, 75 ± 20%. The remaining activity at 1 µM with WNK1 is 107 ± 34%; in the data set with DDR2, 93 ± 3%; with ROCK 2 it was 65 ± 17%; in the data set with MAP4K5, 50 ± 12%; in the data set with NEK2 it was 91 ± 2%.
Consider `N=C(N)NCCC[C@@H](NC(=O)CNC(=O)[C@@H](CCCNC(=N)N)NC(=O)[C@@H](CCCNC(=N)N)NC(=O)CCCCCCCNCc1nc2c(sc3cc(Br)cnc32)c(=O)[nH]1)C(=O)N[C@H](CCCCN)C(N)=O` [Compound 1, BPTP-Aoc-(D-Arg)2-Gly-D-Arg-D-Lys-NH2], for which the remaining activity at 1 µM in the data set with SIK3 came to 106 ± 2%; in the data set with GSK3 it was 110 ± 12%; with PDK1, 116 ± 3%; with TESK1, 111 ± 11%; with MPSK1, 113 ± 21%; in the data set with SYK, 133 ± 15%. Besides, the remaining activity at 1 µM with WNK1 turned out to be 96 ± 4%; with DDR2, 104 ± 22%; in the data set with ROCK 2, 114 ± 17%; with MAP4K5, 107 ± 12%; in the data set with NEK2 it was 108 ± 5%.
For `N=C(N)NCCC[C@@H](NC(=O)CNC(=O)[C@@H](CCCNC(=N)N)NC(=O)[C@@H](CCCNC(=N)N)NC(=O)CCCCCCCNCc1nc2c(sc3ccc(Br)cc32)c(=O)[nH]1)C(=O)N[C@H](CCCCN)C(N)=O` [Compound 2, BBTP-Aoc-(D-Arg)2-Gly-D-Arg-D-Lys-NH2], the remaining activity at 1 µM with SIK3 worked out at 97 ± 9%; with GSK3, 75 ± 8%; in the data set with PDK1, 121 ± 7%; with TESK1, 106 ± 13%; with MPSK1, 113 ± 15%; with SYK, 123 ± 3%. The remaining activity at 1 µM with WNK1 was determined as 93 ± 1%; in the data set with DDR2, 107 ± 7%; with ROCK 2 it was 61 ± 5%; in the data set with MAP4K5, 112 ± 10%; with NEK2, 119 ± 12%.
Turning to `N=C(N)NCCC[C@@H](NC(=O)CNC(=O)[C@@H](CCCNC(=N)N)NC(=O)[C@@H](CCCNC(=N)N)NC(=O)Cn1cc(CNCc2nc3c(sc4ccc(Br)cc43)c(=O)[nH]2)nn1)C(=O)N[C@H](CCCCN)C(N)=O` [Compound 3, BBTP-Amt-(D-Arg)2-Gly-D-Arg-D-Lys-NH2], the remaining activity at 1 µM with SIK3 amounted to 66 ± 6%; with GSK3, 64 ± 8%; with PDK1, 118 ± 16%; in the data set with TESK1, 105 ± 1%; with MPSK1 it was 110 ± 2%; in the data set with SYK, 114 ± 2%. The remaining activity at 1 µM in the data set with WNK1 was 104 ± 6%; in the data set with DDR2, 112 ± 6%; in the data set with ROCK 2, 62 ± 5%; with MAP4K5, 98 ± 3%; in the data set with NEK2, 92 ± 1%.

For the origin of these results see article PMC8307404, “Crystal Structure-Guided Design of Bisubstrate Inhibitors and Photoluminescent Probes for Protein Kinases of the PIM Family” (Molecules, 2021).
